What was measured:
cyno FcRn/b2M [1] = biological target: T1, cyno FcRn/b2M (cyno, UniProt Q8SPV9 24-297; Q8SPW0 21-119, biotinylated); test: SPR pH 6.0;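 note: surface plasmon resonance kinetics at 25 °C, diluted periplasmic extracts injected over immobilized ligand surfaces, 120 s association then 600–3600 s dissociation, running buffer containing 150 mM NaCl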
T1 construct: bought recombinant biotinylated protein (Immunitrack ITF05 or ACRO FCM-C82W5); also called cFcRn; cFcRn/cb2M
Description: (§1) All kinetic measurements have been performed on ProteOn XPR36 (BioRad Laboratories, Inc.), MASS-2 (Sierra sensors, Gmbh) or SPR-32 (Bruker Corporation). […] The phytip purified periplasmic extracts were diluted 1:10 in running buffer (CPA+150 mM NaCl+0.005% Tw20 at pH 5.5, pH 6.0 or pH 7.4) and injected over the ligand surfaces (association: 120 s at 45 μL/min; dissociation: 600s-3600 s at 45 μL/min). Experiments were carried out at 25° C.

human FcRn/b2M [2] = biological target: T2, human FcRn/b2M (human, UniProt P61769 21-119, biotinylated); test: SPR pH 6.0;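 note: surface plasmon resonance kinetics at 25 °C, diluted periplasmic extracts injected over immobilized ligand surfaces, 120 s association then 600–3600 s dissociation, running buffer containing 150 mM NaCl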
T2 construct: bought recombinant biotinylated protein (ACRO FCM-H82W4 or Immunitrack ITF01); also called hFcRn; hFcRn/hb2M
Description: as §1

cyno FcRn/b2M [3] = biological target: T1, cyno FcRn/b2M; test: SPR off-rate; pH 7.4 vs pH 6.0;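 note: surface plasmon resonance with diluted periplasmic extracts flowed over ligand surfaces, 120 s association and 600–3600 s dissociation at 25 °C, running buffer containing 150 mM NaCl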
Description: as §1

human FcRn/b2M [4] = biological target: T2, human FcRn/b2M; test: SPR off-rate; pH 7.4 vs pH 6.0;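 note: surface plasmon resonance with diluted periplasmic extracts flowed over ligand surfaces, 120 s association and 600–3600 s dissociation at 25 °C, running buffer containing 150 mM NaCl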
Description: as §1

cyno FcRn/b2M [5] = biological target: T1, cyno FcRn/b2M; test: SPR pH 7.4;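 note: surface plasmon resonance kinetics, periplasmic extracts diluted 1:10 flowed over immobilized target at 25 °C, 120 s association then 600–3600 s dissociation, buffer with 150 mM NaCl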
Description: as §1

human FcRn/b2M [6] = biological target: T2, human FcRn/b2M; test: SPR pH 7.4;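 note: surface plasmon resonance kinetics, periplasmic extracts diluted 1:10 flowed over immobilized target at 25 °C, 120 s association then 600–3600 s dissociation, buffer with 150 mM NaCl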
Description: as §1

T1 sequence (Q8SPV9 24-297 limits assumed, chain 1 of 2): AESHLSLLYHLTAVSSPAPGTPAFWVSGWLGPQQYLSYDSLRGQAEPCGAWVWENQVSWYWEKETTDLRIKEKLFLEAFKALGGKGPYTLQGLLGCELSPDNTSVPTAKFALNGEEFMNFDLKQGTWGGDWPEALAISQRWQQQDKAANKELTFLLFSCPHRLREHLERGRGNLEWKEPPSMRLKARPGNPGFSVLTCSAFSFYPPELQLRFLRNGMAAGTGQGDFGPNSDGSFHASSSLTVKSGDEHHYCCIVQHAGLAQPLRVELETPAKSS
T1 sequence (Q8SPW0 21-119 limits assumed, chain 2 of 2): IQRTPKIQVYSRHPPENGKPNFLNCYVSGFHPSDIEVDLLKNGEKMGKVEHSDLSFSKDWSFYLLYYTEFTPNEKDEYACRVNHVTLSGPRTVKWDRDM

Binder | koff (cyno FcRn/b2M [1]) [s⁻¹] | koff (human FcRn/b2M [2]) [s⁻¹] | kd ratio pH 7.4/6.0 (cyno FcRn/b2M [3]) | kd ratio pH 7.4/6.0 (human FcRn/b2M [4]) | koff (cyno FcRn/b2M [5]) [s⁻¹] | koff (human FcRn/b2M [6]) [s⁻¹]
T0263018B11 S100K (VHH, name in Kabat numbering, FLAG3-His6 tagged) VHH: EVQLVESGGGVVQPGGSLRLSCAASGFTFSSYAMYWVRQAPGKGLEWVSAISSGGGSTDYADSVKGRFTISRDNSKNTLYLQMNSLRPEDTALYYCAADTLYTKLTWYSYWGQGTLVTVSS | 0.0012 | 0.0032 | 69 | 54 | 0.083 | 0.18
T0263018B11 S101V (VHH, name in Kabat numbering, FLAG3-His6 tagged) VHH: EVQLVESGGGVVQPGGSLRLSCAASGFTFSSYAMYWVRQAPGKGLEWVSAISSGGGSTDYADSVKGRFTISRDNSKNTLYLQMNSLRPEDTALYYCAADTLYTSLTWYVYWGQGTLVTVSS | 0.00058 | 0.00073 | 45 | 43 | 0.026 | 0.032
T0263018B11 S101M (VHH, name in Kabat numbering, FLAG3-His6 tagged) VHH: EVQLVESGGGVVQPGGSLRLSCAASGFTFSSYAMYWVRQAPGKGLEWVSAISSGGGSTDYADSVKGRFTISRDNSKNTLYLQMNSLRPEDTALYYCAADTLYTSLTWYMYWGQGTLVTVSS | 0.00068 | 0.0011 | 54 | 44 | 0.037 | 0.048
T0263018B11 T28V (VHH, name in Kabat numbering, FLAG3-His6 tagged) VHH: EVQLVESGGGVVQPGGSLRLSCAASGFVFSSYAMYWVRQAPGKGLEWVSAISSGGGSTDYADSVKGRFTISRDNSKNTLYLQMNSLRPEDTALYYCAADTLYTSLTWYSYWGQGTLVTVSS | 0.0022 | 0.0032 | 42 | 38 | 0.092 | 0.12
T0263018B11 T28Y (VHH, name in Kabat numbering, FLAG3-His6 tagged) VHH: EVQLVESGGGVVQPGGSLRLSCAASGFYFSSYAMYWVRQAPGKGLEWVSAISSGGGSTDYADSVKGRFTISRDNSKNTLYLQMNSLRPEDTALYYCAADTLYTSLTWYSYWGQGTLVTVSS | 0.00053 | 0.0012 | 79 | 59 | 0.042 | 0.071
T0263018B11 S101T (VHH, name in Kabat numbering, FLAG3-His6 tagged) VHH: EVQLVESGGGVVQPGGSLRLSCAASGFTFSSYAMYWVRQAPGKGLEWVSAISSGGGSTDYADSVKGRFTISRDNSKNTLYLQMNSLRPEDTALYYCAADTLYTSLTWYTYWGQGTLVTVSS | 0.00036 | 0.00057 | 54 | 44 | 0.019 | 0.025
T0263018B11 T28W (VHH, name in Kabat numbering, FLAG3-His6 tagged) VHH: EVQLVESGGGVVQPGGSLRLSCAASGFWFSSYAMYWVRQAPGKGLEWVSAISSGGGSTDYADSVKGRFTISRDNSKNTLYLQMNSLRPEDTALYYCAADTLYTSLTWYSYWGQGTLVTVSS | 0.00017 | 0.00041 | 80 | 59 | 0.014 | 0.024
T0263018B11 T28I (VHH, name in Kabat numbering, FLAG3-His6 tagged) VHH: EVQLVESGGGVVQPGGSLRLSCAASGFIFSSYAMYWVRQAPGKGLEWVSAISSGGGSTDYADSVKGRFTISRDNSKNTLYLQMNSLRPEDTALYYCAADTLYTSLTWYSYWGQGTLVTVSS | 0.00044 | 0.0011 | 75 | 46 | 0.033 | 0.049
T0263018B11 T28L (VHH, name in Kabat numbering, FLAG3-His6 tagged) VHH: EVQLVESGGGVVQPGGSLRLSCAASGFLFSSYAMYWVRQAPGKGLEWVSAISSGGGSTDYADSVKGRFTISRDNSKNTLYLQMNSLRPEDTALYYCAADTLYTSLTWYSYWGQGTLVTVSS | 0.0013 | 0.0018 | 48 | 41 | 0.062 | 0.073
T0263018B11 S101A (VHH, name in Kabat numbering, FLAG3-His6 tagged) VHH: EVQLVESGGGVVQPGGSLRLSCAASGFTFSSYAMYWVRQAPGKGLEWVSAISSGGGSTDYADSVKGRFTISRDNSKNTLYLQMNSLRPEDTALYYCAADTLYTSLTWYAYWGQGTLVTVSS | 0.0013 | 0.0017 | 45 | 36 | 0.058 | 0.062
T0263018B11 S101W (VHH, name in Kabat numbering, FLAG3-His6 tagged) VHH: EVQLVESGGGVVQPGGSLRLSCAASGFTFSSYAMYWVRQAPGKGLEWVSAISSGGGSTDYADSVKGRFTISRDNSKNTLYLQMNSLRPEDTALYYCAADTLYTSLTWYWYWGQGTLVTVSS | 9.7e-05 | 7e-05 | 9 | 17 | 0.00086 | 0.0012

Results, then the binder that gave them:

koff (cyno FcRn/b2M [1]) [s⁻¹] | koff (human FcRn/b2M [2]) [s⁻¹] | kd ratio pH 7.4/6.0 (cyno FcRn/b2M [3]) | kd ratio pH 7.4/6.0 (human FcRn/b2M [4]) | koff (cyno FcRn/b2M [5]) [s⁻¹] | koff (human FcRn/b2M [6]) [s⁻¹] | Binder
0.00038 | 0.00055 | 43 | 45 | 0.016 | 0.025 | T0263018B11 S101Q (VHH, name in Kabat numbering, FLAG3-His6 tagged) VHH: EVQLVESGGGVVQPGGSLRLSCAASGFTFSSYAMYWVRQAPGKGLEWVSAISSGGGSTDYADSVKGRFTISRDNSKNTLYLQMNSLRPEDTALYYCAADTLYTSLTWYQYWGQGTLVTVSS
0.0012 | 0.0015 | 28 | 26 | 0.033 | 0.039 | T0263018B11 T28P (VHH, name in Kabat numbering, FLAG3-His6 tagged) VHH: EVQLVESGGGVVQPGGSLRLSCAASGFPFSSYAMYWVRQAPGKGLEWVSAISSGGGSTDYADSVKGRFTISRDNSKNTLYLQMNSLRPEDTALYYCAADTLYTSLTWYSYWGQGTLVTVSS
0.0009 | 0.0019 | 77 | 51 | 0.069 | 0.097 | T0263018B11 T28N (VHH, name in Kabat numbering, FLAG3-His6 tagged) VHH: EVQLVESGGGVVQPGGSLRLSCAASGFNFSSYAMYWVRQAPGKGLEWVSAISSGGGSTDYADSVKGRFTISRDNSKNTLYLQMNSLRPEDTALYYCAADTLYTSLTWYSYWGQGTLVTVSS
9.4e-05 | 0.00018 | 36 | 44 | 0.0034 | 0.0078 | T0263018B11 S101E (VHH, name in Kabat numbering, FLAG3-His6 tagged) VHH: EVQLVESGGGVVQPGGSLRLSCAASGFTFSSYAMYWVRQAPGKGLEWVSAISSGGGSTDYADSVKGRFTISRDNSKNTLYLQMNSLRPEDTALYYCAADTLYTSLTWYEYWGQGTLVTVSS
0.00024 | 0.00056 | 68 | 57 | 0.016 | 0.032 | T0263018B11 S100M (VHH, name in Kabat numbering, FLAG3-His6 tagged) VHH: EVQLVESGGGVVQPGGSLRLSCAASGFTFSSYAMYWVRQAPGKGLEWVSAISSGGGSTDYADSVKGRFTISRDNSKNTLYLQMNSLRPEDTALYYCAADTLYTMLTWYSYWGQGTLVTVSS
0.00084 | 0.0019 | 69 | 68 | 0.058 | 0.13 | T0263018B11 S100Q (VHH, name in Kabat numbering, FLAG3-His6 tagged) VHH: EVQLVESGGGVVQPGGSLRLSCAASGFTFSSYAMYWVRQAPGKGLEWVSAISSGGGSTDYADSVKGRFTISRDNSKNTLYLQMNSLRPEDTALYYCAADTLYTQLTWYSYWGQGTLVTVSS
